Measured values taken from article PMC8570598.

Molecular target: Rat tail collagen-I (polymerized fibrillar collagen type I) (rat) (UniProt P02454)
Experiment: FRAP

UniProt P02454, sequence (P02454 152-1207, chain 1 of 2): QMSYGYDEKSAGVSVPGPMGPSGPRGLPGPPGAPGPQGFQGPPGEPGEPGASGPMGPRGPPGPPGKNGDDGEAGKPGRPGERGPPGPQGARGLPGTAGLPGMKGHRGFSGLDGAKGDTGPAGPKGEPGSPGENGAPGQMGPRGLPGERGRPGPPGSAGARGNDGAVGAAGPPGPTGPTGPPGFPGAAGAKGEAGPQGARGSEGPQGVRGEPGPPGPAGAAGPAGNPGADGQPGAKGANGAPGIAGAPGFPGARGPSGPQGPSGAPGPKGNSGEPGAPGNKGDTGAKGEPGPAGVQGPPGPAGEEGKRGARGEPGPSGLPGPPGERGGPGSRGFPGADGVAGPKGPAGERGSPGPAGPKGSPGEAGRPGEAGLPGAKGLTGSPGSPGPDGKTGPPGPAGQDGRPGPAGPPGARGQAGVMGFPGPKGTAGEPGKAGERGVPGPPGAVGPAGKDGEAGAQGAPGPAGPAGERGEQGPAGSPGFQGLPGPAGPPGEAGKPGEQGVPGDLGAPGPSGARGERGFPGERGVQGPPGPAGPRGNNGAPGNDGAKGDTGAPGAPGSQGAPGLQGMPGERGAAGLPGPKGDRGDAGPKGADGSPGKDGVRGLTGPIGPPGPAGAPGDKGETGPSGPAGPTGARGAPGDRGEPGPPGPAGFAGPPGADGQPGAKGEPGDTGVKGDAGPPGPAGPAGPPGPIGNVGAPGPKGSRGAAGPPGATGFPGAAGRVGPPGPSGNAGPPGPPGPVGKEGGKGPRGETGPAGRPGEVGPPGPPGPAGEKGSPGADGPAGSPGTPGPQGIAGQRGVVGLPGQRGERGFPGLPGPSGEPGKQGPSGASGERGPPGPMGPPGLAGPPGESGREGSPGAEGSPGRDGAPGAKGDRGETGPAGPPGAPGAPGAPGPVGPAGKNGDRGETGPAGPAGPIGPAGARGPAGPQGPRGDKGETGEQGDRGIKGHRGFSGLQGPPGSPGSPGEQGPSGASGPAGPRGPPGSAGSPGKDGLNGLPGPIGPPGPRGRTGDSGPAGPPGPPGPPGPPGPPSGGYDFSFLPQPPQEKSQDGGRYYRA
UniProt P02454, sequence (P02466 86-1125, chain 2 of 2, further chain): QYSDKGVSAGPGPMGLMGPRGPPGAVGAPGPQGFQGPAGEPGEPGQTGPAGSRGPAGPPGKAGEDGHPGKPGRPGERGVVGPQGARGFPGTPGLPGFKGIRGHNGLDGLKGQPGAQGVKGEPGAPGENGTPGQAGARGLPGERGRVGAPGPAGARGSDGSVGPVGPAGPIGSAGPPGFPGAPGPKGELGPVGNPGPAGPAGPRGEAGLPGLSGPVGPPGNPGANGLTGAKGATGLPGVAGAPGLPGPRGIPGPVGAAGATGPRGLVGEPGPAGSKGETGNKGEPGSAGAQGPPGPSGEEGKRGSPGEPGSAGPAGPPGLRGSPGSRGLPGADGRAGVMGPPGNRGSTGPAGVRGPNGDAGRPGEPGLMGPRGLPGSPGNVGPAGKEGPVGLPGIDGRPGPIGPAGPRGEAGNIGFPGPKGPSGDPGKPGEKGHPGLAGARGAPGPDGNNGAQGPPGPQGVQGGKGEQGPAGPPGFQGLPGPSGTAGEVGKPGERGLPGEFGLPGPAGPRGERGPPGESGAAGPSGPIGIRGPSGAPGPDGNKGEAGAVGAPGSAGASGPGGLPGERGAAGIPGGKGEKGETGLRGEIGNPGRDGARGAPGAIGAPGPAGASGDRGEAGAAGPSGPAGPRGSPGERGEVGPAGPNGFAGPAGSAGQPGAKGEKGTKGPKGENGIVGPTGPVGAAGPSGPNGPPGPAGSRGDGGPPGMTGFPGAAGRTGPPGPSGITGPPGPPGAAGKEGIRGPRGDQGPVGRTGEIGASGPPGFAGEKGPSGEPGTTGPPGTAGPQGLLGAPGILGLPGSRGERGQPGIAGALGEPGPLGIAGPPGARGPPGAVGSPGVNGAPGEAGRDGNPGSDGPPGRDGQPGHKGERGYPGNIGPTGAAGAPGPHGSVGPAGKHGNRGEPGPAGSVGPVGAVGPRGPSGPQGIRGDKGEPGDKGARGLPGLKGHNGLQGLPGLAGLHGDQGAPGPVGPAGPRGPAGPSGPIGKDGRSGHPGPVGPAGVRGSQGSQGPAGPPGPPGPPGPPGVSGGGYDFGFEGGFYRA

- mobile fraction (FRAP, free Alexa488-EGF in the medium): 50%
Substance: Alexa488-labeled epidermal growth factor (EGF) (ligand)
